# From patent US20260258115A1
# B1: ADI-41160 (antibody, V domains shown)
# VH: QVQLVQSGAEVKKPGSSVKVSCKASGGTFSSYPIIWVRQAPGQGLEWMGRIIPILGIASYAQKFQGRVTITADKSTSTAYMELSSLRSEDTAVYYCARNSDFYYGMDVWGQGTTVTVSS
# VL: QSALIQPASVSGSPGQSITISCTGTSSDVGGYNYVSWYQHHPGKAPKLMIYDVSNRPSGISNRFSGSKSGNTASLTISGLQAEDEADYYCSSYTSSSLYVFGTGTKVTVL
# B2: ADI-41146 (antibody, V domains shown)
# VH: QVQLVQSGAEVKKPGESLKISCKGSGHSFATFWIGWVRQVPGNGLELMGIINLGDSDTKYSPSFQGQVTISADESIGTAYLQWSSLKASDTAMYYCARVSLPHYYYYMDVWGKGTTVTVSS
# VL: DIVMTQSPSSVSASVGDRVTITCRASQGISTWLAWYRQKPGKAPELLIYAASRLQSGVPSRFSGSGSGTDFTLTISSLQPEDFATYYCQQANSFLGAFGPGTKLEIK
# B3: ADI-41161 (antibody, V domains shown)
# VH: EVQLVESGGGLVQPGGSLRLSCAASGFTFSTFEFNWVRQAPGKGLEWLSYISSDDTTRYYADSVKGRFTISRDNAKNSLYLQMNSLRAEDTAYYYCVRGGPYDYVWGTYRYFDFWGQGTLVTVSS
# VL: QSVLTQPASVSGSPGQSITISCTGTSSDIGGYNYVSWYQQHPGKAPKLMIYDVTNRPLGVSNRFSGSKSGNTASLIISGLQAEDEAEYYCCSYTSSNSLVFGGGTKLTVL
# B4: ADI-41155 (antibody, V domains shown)
# VH: QVQLQESGPGLVKPSETLSLTCTVSGGSIGNNFYYWGWIRQPPGKGLEWIGSIYYSGTTYDNPSLKSRVTISVEPSKNQFSLKLSSVTAADTAVYHCARRYCDSTRCYEAFDIWGQGTTVTVSS
# VL: SYELTQPPSASGTPGQRVTISCSGSSSNIGSNYVSWYQQLPGTAPKLLIYKNDQRPSGVPDRFSGSKSGTSASLAISGLRSEDEAEYYCAAWDDSLSGFYVFGTGTKVTVL
# B5: ADI-41163 (antibody, V domains shown)
# VH: QVQLVQSGGGVVQPGRSLRLSCAASGFPFHSYAMHWVRQAPGKGLEWVAVIWYEGSEKHYADSVQGRFTISRDNSKNMLYLQMNNLRVADTAVYYCARRGAWGFDIWGQGTTVTVSS
# VL: DIVMTQTPLSLPVTPGEPASISCRSSQSVLHSTGYNSLDWYLQKPGQSPQLLIFLGSNRASGVPDRFSGSGSGTDFTLKISRVEAEDVGVYYCMQGLQTPYTFGQGTKVEIK
# B6: ADI-41166 (antibody, V domains shown)
# VH: EVQLVQSGAEVKKPGASVKVSCKTSGYTFTGDYLHWVRQAPGQGLEWMGRLNPKSGGTVYAQRFQGRVTMTGDTSVTTAYMQLTRLRSDDTAIYYCARGIPVSGPVSIDYWGQGTLVTVSS
# VL: QSVLTQPASLSGSPGQSITISCTGTSSDVGGYGYVSWYQQHPGKAPKLMIYDVANRPSGVSHRFSGSKSGNTASLTISGLQADDEADYYCSSYTRSNTVVFGGGTKLTVL
# B7: ADI-41162 (antibody, V domains shown)
# VH: EVQLVQSGAEVKKPGSSVKVSCKASGVTGGTFSSYAISWVRQAPGQGLEWMGGIMPMFGTTNYAQKFQGRVTITADKSTSTAYMELSSLRSEDTAVYYCARDYRDFSPHLDYYYMDVWGKGTTVTVSS
# VL: DIRLTQSPGTLSLSPGERATLSCRASQSVSTSYLAWYQQKPGQAPRLLIYGASNRATGIPDRFSGSGSGTDFTLTISRLEPEDFAVYYCQQYGRTSWTFGQGTKVDIK
# B8: ADI-41144 (antibody, V domains shown)
# VH: EVQLVQSGAEVKKPGGSVKVSCKASGYTFSEYYMHWVRQAPGQGPEWVGRINPKSGRTNYAQNFQGRVTMTRDRSISTVYMDLSRLRSDDTAVYYCARWEVMDYGSGIYYNQDHFDYWGQGTLVTVSS
# VL: DIRVTQSPSSLSASVGDRVTITCRASQDITNYLAWFQQKPGKAPKSLMYAASTLQSGVPSRFSGSGSGTDFTLTISSLQPEDFATYYCQQYKTYPITFGQGTRLEIK
# B9: ADI-41153 (antibody, V domains shown)
# VH: EVQLVESGGGLVKPGGSLRLSCAASQFTFSTYDMSWVRQAPGKGLEWVASISSGSTYIYYADSVKGRFTISRDNAKHSLFLQMKSLRAEDTALYYCARQVLYDRGGYYLYYFDHWGQGTLVTVSS
# VL: DIQVTQSPSSLSASVGDRVTITCRASQTIASYLNWYQQKPGKAPNLLIYAASNLQSGVPSRFSGSGSGTEFTLTINTLQPEDFATYYCQQSYNFPYTFGQGTKVEIK
# B10: ADI-41154 (antibody, V domains shown)
# VH: QVQLQQWGAGLSKPSETLSVTCAVYGGSLSGHYWSWFRQPPGKGLEWIGEIDHSGSTTYNPSLKSRVTISVDTSKNQFSLKLTSVTAADTAMYYCARATRYNYGYTFDYWGQGTLVTVSS
# VL: DIPLTQSPSSLSASVGDRVTITCRASQIISSYLNWYQQKPGKAPKLLIYAASTLQSGVPSRFSGSRSGTDFTLTISSLQPEDFASYYCQQSYIIPFTFGPGTKVEIK
# B11: ADI-41149 (antibody, V domains shown)
# VH: QVQLVQSGGGVVQPGRSLRLSCAASGFTFSDYGMHWVRQAPGKGLEWVAVIWFDGSNKNYADSVKGRFTISRDNSMNTLYLQMNNLRAEDTAVYYCARAPYSFWSGYYLDYWGQGSLVTVSS
# VL: DIVMTQSPATLSVSPGERATLSCRASQSISSNLAWYQQKSGQAPRLLIYGASTRATGIPARFSGSGSGTEFTLTISSLQSEDFAVYSCQQYSKWPQTFGQGTKVEIK
# B12: ADI-41174 (antibody, V domains shown)
# VH: EVQLVESGAEVEKPGASVKVSCKASGYTFINYDIIWVRQAPGQGLEWMGWISGYKGNTNYAQKLQGRITMSTDTSTRTAYMELRSLTSDDTAVYYCARVGGTARSTTPYYYGMDVWGQGTTVTVSS
# VL: SYVLTQPPSVSVSPGQTARITCSGDAVPKQFSYWYQQKPGQAPVLVIYKDIERPSGIPERFSGSSSGTTVTLTISGVQAEDEADYYCQSAHTSGTYHVFGTGTKLTVL
# B13: ADI-41218 (antibody, V domains shown)
# VH: QVQLVQSGAEVKKPGASVKVSCKASGYTFISDGISWVRQAPGQGLEWMGWINPHNENTNYAQKFQGRVTMTTDTSTSTAYLELRGLRSDDTAVYYCARDPYHWSYLDYWGQGTLVTVSS
# VL: QSVVTQPPSVSGAPGQRVTITCTGSSSNIGANSDVHWYQQIPGTAPKLLIFGNSNRPSGVPDRFSGSKSGTSASLAITGLQAEDEADYYCQSYDRSLSGSRVFGGGTRLTVL
# B14: ADI-41223 (antibody, V domains shown)
# VH: QVQLVESGGGVVQPGRSLRISCAASGFTFSNYGMHWVRQAPGKGLEWVAVLSYDGSNEYYADSVKGRFTISRDNSKNTLYLQMNSLRAEDTAVYYCAKNLNDYNISWYKCFDLWGRGTLVTVSS
# VL: QPVLTQPASVSGSPGQSITISCTGTSSDVGGYNYVSWYQHHPGKAPKLIIYDVNNRPSGVSNRFSGSKSGNTASLTISGLQAEDEADYICSSYTTITTFVVFGGGTKLTVL
# B15: ADI-41164 (antibody, V domains shown)
# VH: QVQLVQSGGDLVQPGGSLRLSCAASGFTFSDYEVNWVRQAPGKGLEWLSYISSSGRIIHYADSVRGRFTISRDNAKNSLYLQMNSLRAEDTAVYYCARAAGQWLVTYYYYGMDVWGQGTTVTVSS
# VL: QSVMTQSPSTLSASVGDTVTITCRASQSIINRLAWYQQKPGKPPKLLIYKSSSSESGVPSKFSGSGSGTEFTLTINSLQPDDFATYYCQHYNSYLYTFGQGTKVEIK
# B16: ADI-41159 (antibody, V domains shown)
# VH: EVQLVESGAEVKKPGESLKISCKGSGYSFTTYWIGWVRQMPGKGLEWMGIMYPGDSQTRYSPSFQGQVTISADKSISTAYLQWSSLKASDTAMYYCARGGYCSGGSCYRGLDYWGQGTLVTVSS
# VL: EIVMTQSPSSLSASVGDRVTITCRASQSISSFLNWYQQKPGKAPNLLIYAASSLLSGVPSRFSGSGSGTDFTLTISSLQPEDFATYYCQQSHSTPQTFGQGTKLEIK
# B17: ADI-41194 (antibody, V domains shown)
# VH: QVQLQESGPGLVKPSQMLSLTCTVSGDSISSGDYYWSWIRHHPGKGLEWIGYISYSGSTYNNPSLKSRVTVSVDTSKNQFFLKLTSVTAADTAVYYCARATKPYHSYFYMDVWGKGTTVTVSS
# VL: EIVLTQSPGTLSLSPGERATLSCRASQSGSRSYLAWYQQRPGQAPRLLIYGASNRATGIPDRFSGSGSGTDFTLTISRLEPEDFAVYYCQQYGNAPTFGGGTKVDIK
# B18: ADI-41219 (antibody, V domains shown)
# VH: EVQLVESGGGLVQPAGSLRLSCAASGFTFSNYVMNWVRQAPGKGLEWVSYISSSGRTIHYADSVKGRFTISRDNAKNSLYLEMNSLRAEDTAVYYCARDPNYGGNSNRFDSWGQGTLVTVSS
# VL: DIVMTQTPSSLSASVGDRVTITCRASQTISNYLNWYQQKPGKAPKLLIFAASSLQSGVPSRFSGSGSGTDFTLTISSLQPEDFATYYCQQSYSAPRVTFGPGTKVDIK
# B19: ADI-41176 (antibody, V domains shown)
# VH: EVQLVESGPGLVKPSETLSLTCTVSGGSIGNDYYYWGWIRQPPGKGLEWIGNISYSGSTYYNPSLKSRVTISVGTSKNQFSLKLTSVSAADTAVYHCVGRTFWRDCSSTSCYEYYFDYWGQGTLVTVSS
# VL: ETTLTQSPTSLSASVGDRVTITCRASQGISNYLAWYQQKPGKVPKVLIYAASTLQSGVSSRFSGSGSGTGFTLTISNLQPEDVATYYCQNYNSAPWTFGQGTKVEIK
# Target: RSV prefusion F (preF), DS-Cav1 (Respiratory Syncytial Virus)
# Experiment: BLI, IgG on anti-human IgG sensor, 100 nM antigen
row,Binder,Kd [nM]
1,B1,2.41
2,B2,4.44
3,B3,2.54
4,B4,3.52
5,B5,4.65
6,B6,3.15
7,B7,4.06
8,B8,0.94
9,B9,0.928
10,B10,4.63
11,B11,4.34

# Target: RSV postfusion F (postF), F deltaFP (Respiratory Syncytial Virus)
# Experiment: BLI, IgG on anti-human IgG sensor, 100 nM antigen
row,Binder,Kd [nM]
1,B12,0.751
2,B1,0.337
3,B2,0.746
4,B3,0.364
5,B4,0.478
6,B5,0.604
7,B13,0.729
8,B14,1.81
9,B6,0.44
10,B7,0.748
11,B15,0.962
12,B8,0.759
13,B16,9.87
14,B17,1.16
15,B9,0.445
16,B10,1.35
17,B18,1.28
18,B11,0.857
19,B19,4.07

# Target: Respiratory Syncytial Virus fusion glycoprotein (RSV F) on RSV-A2 virus (Respiratory Syncytial Virus subtype A (RSV-A2))
# Experiment: cell-based or functional assay
row,Binder,Neutralization IC50 (RSV subtype A) [µg/mL]
1,B12,> 25
2,B1,> 25
3,B2,> 25
4,B3,> 25
5,B4,> 25
6,B5,> 25
7,B13,> 25
8,B14,> 25
9,B6,> 25
10,B7,> 25
11,B15,> 25
12,B8,0.37
13,B16,> 25
14,B17,> 25
15,B9,> 25
16,B10,> 25
17,B18,> 25
18,B11,> 25
19,B19,> 25
